From patent publication US20230174622A1

Biological target: eEGFRt (modified EGFRt on edited T cells; variant not specified) (human)
Experiment: cell-based or functional assay

Substance: αEGFR-SAP immunotoxin (biotinylated Cetuximab antibody combined with streptavidin-SAP conjugate, 1:1 molar ratio)
- depletion of EGFRt-expressing lymphocytes after 3 days in vitro (flow cytometry), 5 nM and 1 nM: 50%
- reduction of eEGFRt+ cells after in vitro treatment (flow cytometry): 1.8 fold
